Laboratory results: the DeepSol protein solubility set

Test: soluble on expression in E. coli; label from the status in PepcDB or PDB records

Soluble on expression in E. coli, soluble:
MSLKSELPPVQVALDLVDLPRAIEIAKEAVAGGVTWVEAGTPLIKSEGMNAIRELRKNFPTLTIVADMKTMDAGSTEVEMAAKAGANVILILGVGPDSMIIDAVKAGKKYGVLVGTDLIATEDPIKRAVELEEMGVDIINIHVGLDQQVLNVDPVELVKRVSENCKKAKIAAAGGLNSETAVKAYEAGADIIIAGGTLYKSADPEQTARDIIKGLKTGKPVKTDKFKKFNESELVSAFNVVSTSNISDAMHRTGEMKGLKPVWNSEKPLKFAGPAVTVRTYSGDWSKPVSAIDDCEAGNVLVIDNCSSEIACWGGLATLSCETKGVVAIVIDGAVRDVEEILKIGIPVFARSITPTAGEPKGFGEINAVIDCAGRTVEPGDWIVGDENGIIVVPKNEAMEIANRAIDVKEREDRVKEEITRGTTLAKTIRLKDWELKEGHHHHHH, MSLKTFLESLKFPVQEVNKKSSGEKGPGRPPYWEMVFYWTRKPLVGARSVIAGALLPENVDENLFKAAVRLSSPTPHRENPQIPAEFAKYFEGKKLLDPFAGFGSIPLEGLRLGLDVTAVELLPTTYIFLKAVLEYPKKFGKSLVKDVERWGEWITEQLKNDPEIRELYDDDVAVYIGTWEIRCPHCGRWTPAIGNFWLARVKEGHHHHHH, MSLKVGLKLLQTPKESMLFNIDSYKIIGIGISRGNEKYMKSTICVARNIFTNGILVGSFEGILGGRTARLCSYKFVDYFLNKVSNKVVQESIEESLISTFQRLNEKIKEKNLNDVSSGLVYVFYNKILYFAQCGSIKSYIISNSNIKEIGFDHCLSNNEMKKKIMQKGGLVDNNNMLNGVINVCKCIGESNYHNLLNTTPDITKIEYDDDFKFVLTASKSVWDVIDQNELQSIVINSAHIQPPGIANLIRNIALERNCKGNISVTILSLDSEGHHHHHH, MSLKYKRIVFKVGTSSITHSDGSLSRGKIQTITCQLAALHHAGHELVLVSSGAVAAGFGALGFKKRPVKIADKQASAAVGQGLLMEEYTANLSSDGIVSAQILLSRADFADKRRYQNAGGALSVLLQRRAVPIINENDTVSVEELKIGDNDTLSAQVAAMIQADLLVLLTDIDGLYTGNPNSNPDAVRLDKIEHINHEIIEMAGGSGSANGTGGMLTKIKAATIAAESGVPVYICSSLKPDALAEAAEHQADGSFFVPRAKGLRTQKQWLAFYSESRGSVYVDEGAEHALSEQGKSLLMSGIAGIEGHFSRMDTVTVYSKATKQPLGKGRVLFGSAAAEDLLKSRKAKGVFIHRDDWISITPEIRLLLTEFEGHHHHHH, MSLLDIIFPPNNNDDDFYGQHFSLIDSIIVKVAQDSNLSQSLRVYQYLYSWRLFGCMVAVVNNNKTLELGDKRGAIEALYEFITRFRIENPTGDVERKVKLKILEIYMIILNLLKSFENNQDQWFLKTNSYKETTTTRRREGHHHHHH, MSLLEKDINLKIFKGNLIFTKTSDKFTIMKDSYIVVIDGKIASVSSNLPDKYKGNPIIDFRNNIIIPGMNDLHAHASQYKNLGIGMDKELLPWLNNYTFPEEAKFLNVDYAKKTYGRLIKDLIKNGTTRVALFATLHKDSTIELFNMLIKSGIGAYVGKVNMDYNCPDYLTENYITSLNDTEEIILKYKDKSNIVKPIITPRFVPSCSNELMDGLGKLSYKYRLPVQSHLSENLDEIAVVKSLHKKSNFYGEVYDKFGLFGNTPTLMAHCIHSSKEEINLIKRNNVTIVHCPTSNFNLGSGMMPVRKYLNLGINVVLGSDISAGHTCSLFKVIAYAIQNSKIKWQESGKKDMFLSTSEAFYMATKKGGSFFGKVGSFEEGYDFDALVINDSNLYPEDYDLTERLERFIYLGDDRNIMKRYVCGNEIFGPKFEGHHHHHH, MSLLFDQGHAYQPLAEVLRPQTLTDYIGQQHILGPGKPLRQTLENRNLHSMIFWGPPGVGKTTLANVISNTVEARFEVLSAVQAGVKDIKLVAEKAKQAQAYGEVTVLFVDEVHRFNKAQQDAFLPYVENGTFIFIGATTENPSFELNSALLSRARVYVLKSFTDDDFRQLWQRARSLDERIAKLAIENDALDGLIQFADGDARRFLNFLEIAIDFFTSEAVITLDDIRELLSHQPRRFDKGGENFYDQISAFHKSVRGSSPDGALYWLCRMLDGGIDPLYLARRMVRIASEDIGNADPRALTLALNAWDSQERLGSPEGELSLAQAAVYLASAPKSNAVYTAFNAMMSAVRSSHSAEVPLHLRNAPTSLMKDLDYGRDYRYAHDEPHAYAAGEVYLPDHMQGQRFYDPVDRGLEQKIRQKLDFLKQLDEQAQNQEDEGHHHHHH, MSLLRLTSVVGIGHAEDPNPRFRKQMEDVCVMIDKLGNSHSTGFFAIYDGHGGQEAARIAGDNLHRYLLEDLLNQKLEHLLEADPLANQSMSQPTCSQAGSKLSSDGHNLSGNPSGVPKDSQLTNATMSSGVRTGTFSKDKISPSAKVRVPVPPNEPSKLGAIIRKAIQRTDDVLRQKNVLYVGCTALIALVTKYTIEFASVGDSRAVISINGTAYRCTEDHKASDKLEIDRIKSLGGTVIFGRVNGFISVSRALGDHCIKNLVTCDPFLRSYPRYPTPDSVGVTASSTNELDEFIIMACDGVWDVVTDQQSVDTVRKCLKETGSPQKAAFELKNLAIRSGTQDNVSVLVLLLREINKWEGHHHHHH, MSLMIVYKGEKMQFIRVNTLKINPEVLKKRLENKGVVLEKTFLDYAFEVKKSPFSIGSTPEYLFGYYMPQSISSMIPPIVLNPREDDFILDMCAAPGGKTTHLAQLMKNKGTIVAVEISKTRTKALKSNINRMGVLNTIIINADMRKYKDYLLKNEIFFDKILLDAPCSGNIIKDKNRNVSEEDIKYCSLRQKELIDIGIDLLKKDGELVYSTCSMEVEENEEVIKYILQKRNDVELIIIKANEFKGINIKEGYIKGTLRVFPPNEPFFIAKLREGGSHHHHHH, MSLMKSSPLVRQASTEKESTKSENLTEYLIEAIVEGQLAPGSKISEPELAKQFQVSRGPLREALMRVEGLGLIERIPHIGARVIQLSPTKLVELYAVREALEGMAARLAARNITEIELAGLESLLSTHSTHIDQVEGASYFHQQGDFDFHYRIIQACRNQQLIGLLCDELYHLLRMYRYQSPRSHSRPVEALEEHKFILRAIRQRDEELAEMLMRRHISRSRQLIEQQIMLDAQQQGEGHHHHHH, MSLMVIRPVERSDVSALMQLASKTGGGLTSLPANEATLSARIERAIKTWQGELPKSEQGYVFVLEDSETGTVAGICAIEVAVGLNDPWYNYRVGTLVHASKELNVYNALPTLFLSNDHTGSSELCTLFLDPDWRKEGNGYLLSKSRFMFMAAFRDKFNDKVVAEMRGVIDEHGYSPFWQSLGKRFFSMDFSRADFLCGTGQKAFIAELMPKHPIYTHFLSQEAQDVIGQVHPQTAPARAVLEKEGFRYRNYIDIFDGGPTLECDIDRVRAIRKSRLVEVAEGQPAQGDFPACLVANENYHHFRVVLVRTDPATERLILTAAQLDALKCHAGDRVRLVRLCAEEKTAEGHHHHHH

Soluble on expression in E. coli, not soluble:
MSLKTHTLPLLLSCTLFLIGACTSMPPEIRNFSAVDIPYQPVSQNAETYKDAPVRWGGTVIEVENETDFSLMQVLFHPLDRSGYPETRKPGEGRFAVEINEFLDPAIYTKGVEVTVIGTVKGNIERTIGNKTIHIPLITAKTIHLWPQAYREDNLYRYGPYPGYYGYGYPFFYNGYYRPYRFWWEGHHHHHH, MSLLAQLDQKIAANGGLIVSCQPVPDSPLDKPEIVAAMALAAEQAGAVAIRIEGVANLQATRAVVSVPIIGIVKRDLEDSPVRITAYIEDVDALAQAGADIIAIDGTDRPRPVPVETLLARIHHHGLLAMTDCSTPEDGLACQKLGAEIIGTTLSGYTTPETPEEPDLALVKTLSEAGCRVIAEGRYNTPAQAADAMRHGAWAVTVGSAITRLEHICQWYNTAMKKAVL, MSLLEVKNLRIEYPSRHGVHAAVKSLTLDIQRGEIVGVVGESGAGKSTVGNAVIDLLSPPGTIAGGEVYLNGEKISGLSPQAMREVRGSKIGFIFQDPMTSLNPLFTVEHQLTETIHANMQVSAEEAYQRALSLMKQVGIPQPENRLKQYPHQFSGGMRQRVVIAIALAGEPDLIIADEPTTALDVSIQDQILNLIRELCKKNNVGCMLVTHDMGVVSNVTDRVAVMYRGDLVEFGPTAKVLGTPEHPYTRSLISAVPRSDRKLDRFPLVSYIEEAKELKPLDVKSHWLGQSQDHRKYTGPLLKVENVNLRFVTKDSLFESRREYVQASNNVSFAVHEGETFGLVGESGSGKSTIARVIAGLYQPNAGRVTFEGIDLTALKSEHERRPLRRQMQMVFQNPYTSMNPRMKIFDIIAEPIRFHKLTRSESETRQIVNDLLEHVGLGKMAGLKYPHEFSGGQRQRISIARALATRPRLLICDEPTSALDVSVQAQILNLLKDLQDELNLTMLFISHDLPVIRQMCDRVGVMQMGTLLEVAPTEQLFTDPQHEYSKKLISLMPEFTGLRESTTAA, MSLLSIIPISAGIPLTETEPKQKWLEEWSKQLFVKVSIDSEYGWGEVLPAAFNSPALYADIVKRLEPSLNGMEISEPGIIWEKLRKLTFSGGYGPVIGAISGVDIALWDLKAKLSKLYLGDIFGKNEQKIARYASLSRYANYEAVIRASKNIVESGFKAIKLHQTKDDTLESVKRFREEIGYGVDLMVDLNCAMNIDEAIKFANSVQRYELKWVEEPIWPPDDLASLKKINDIVPVAAGENFFDFFKFEDAVHLEALTYYQPDVTKVGGLTPTLKILDLLKKNHEQVAFHNRPHNGWIGIFASIAAARMNGVDALIETPPNGVPSQYFRYNAMITSEVIAPNGVGLSIEPIEPLPQPKDEKILIFHDEGHHHHHH, MSLMPPFLRILGIETSCDETAASIVVRHADGRGEIVSDVVLSQLEEHSAYGGVVPEIAARAHVEALDTLVEEALDQAGVKLADVDAIAATSGPGLIGGLLVGLMTGKAIAKAAGKPLYAINHLEGHALTARLTDGLSFPYLMLLVSGGHTQLVLVRGVGEYERWGTTIDDALGEAFDKTAKLLGLPYPGGPAVENAAAKGDPDRFPLPRPMVGEARLDFSFSGLKTAVRQAATAIAPLSEQDIADICASFQKAVSRTLKDRIGRGLARFKVEFPHINGEPALVVAGGVAANQEIRQTLQALCDTHGFRFVAPPHRLCTDNAAMIAWAGLERMAEGRQADALEVAPRSRWPLDGSAETLIGFGKRGAKAEGHHHHHH, MSLMYPLVLDLAADGIPVTVTCRVLGFSTQAFYKWRKAPLTQRDWDDAHLINAARDIHADDPAFGYRFIADELPGRGITAGENRVARLCSQERIWSIFAKKRGLNRRSGPPVHDDLVERQFSAQAANQVWLTDITEHRTNEGKLYLCAIKDVYSNRIVGYSMDSRMKSSLAVAALDHAVALRSPVATIVHSDRGSQFRSRKFVRALSRNGLQGSMGRVGACGDNAAMESFFALLQRNVLDRKRWSTRAELRLAIVTWIERTYHRRRRQRALGRLTPIEFELLRTSVATAAEGHHHHHH, MSLNAGAVKLDESMTPMQAMAAVAAECVDHIARNAAVLAEVDTLGVYRAGTPEHVHQLRVGVRRLRSAWRLFDGWIADPSETLAQGARTHFSAFGMARDQDVLADTIMPLLARAGMPALPAEAAPSNDNAQSLAADRAFQGWLLELLAWSLDVPAEAAPPALRKRLTGRLRRWHLKVIDEGLRFGALELEARHELRKRVKRLRYGLSFAESLLPAARLRTYRKQLARVQDLLGEINDLAVARDYYQAALQAHPQAWFAVGWIGARLDGLTPQAQEAFDQLAHAKPFWKEGHHHHHH
